Experimental data reported in paper PMC5703852, “Functional interplay between the transcription factors USF1 and PDX-1 and protein kinase CK2 in pancreatic β-cells” (Scientific Reports, 2017).

Target: T1, GST-USF1 T100D (UniProt P22415 1-310, T100D)
T1 construct: USF1 with the CK2 phosphorylation site threonine 100 changed to the phospho-mimicking aspartic acid, as GST fusion; also called phospho-mimicking USF1_(T100D) mutant; source: bacterial expression, purified GST fusion protein
Assay: pull-down; 10 µg purified GST fusion protein on GSH-sepharose in PBS-T (PBS pH 7.4, 1% Tween 20), 2 h at 4 °C with 7.5 µl in vitro translated [35S]methionine-labelled partner; SDS-PAGE, Coomassie, autoradiography
Conditions: one partner purified

T1 sequence (P22415 whole entry T100D, the tested form may be a part): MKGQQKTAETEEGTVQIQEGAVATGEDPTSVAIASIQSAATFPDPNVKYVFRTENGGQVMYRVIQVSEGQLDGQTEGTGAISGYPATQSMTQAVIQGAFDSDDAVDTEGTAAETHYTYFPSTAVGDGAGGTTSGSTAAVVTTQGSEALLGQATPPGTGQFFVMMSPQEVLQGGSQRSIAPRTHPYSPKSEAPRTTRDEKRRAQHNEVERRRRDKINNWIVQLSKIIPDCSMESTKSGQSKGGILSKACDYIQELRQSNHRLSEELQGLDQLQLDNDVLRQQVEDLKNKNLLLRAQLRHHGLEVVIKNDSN

B1: in vitro translated PDX-1 (pRSET-PDX-1) (natural protein)
chain: not shown
modifications: [35S]methionine labelled
notes: mouse PDX-1 cDNA cloned in frame into the BamH1/HindIII sites of pRSETA; also called wild-type PDX-1; source: in vitro translated (from pRSET-PDX-1, Promega)
fold binding against wild-type or alanine mutant USF1: 3.5 fold
